Columns and labels:
[1] = target: T1, Human Myelin Basic Protein (Homo sapiens, UniProt P02686); experiment: phage display, NGS count
Target sequence in this assay (P02686 135-304 limits assumed): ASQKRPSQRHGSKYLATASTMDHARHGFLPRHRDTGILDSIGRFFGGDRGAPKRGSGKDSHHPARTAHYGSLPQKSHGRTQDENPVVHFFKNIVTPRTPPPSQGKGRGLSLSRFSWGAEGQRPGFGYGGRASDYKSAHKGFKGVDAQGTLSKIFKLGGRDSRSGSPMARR

[2] = target: T1, Human Myelin Basic Protein; experiment: Phage display library screening (Example 2, Python script analysis), binding to Human Myelin Basic Protein; design: Enzo 200-606-M001 from human; purchased Enzo 200-606-M001; host or cells: human brain (tissue-derived); conditions: R3 Myelin Basic Protein; combined unique sequence count, Python/R script analysis
Description: Phage display library screens were used to identify peptides that bind to target proteins (including specific laminin trimers) that are expressed in human nerves, as described in Table 3. These screens were also carried out to identify peptides that could bind selectively to nerves versus muscle. Such peptides could therefore be useful for systemic in-vivo labeling of nerves during fluorescence assisted surgery. Specifically, m 13 phage libraries expressing 7 or 12 random amino acid peptides, or a cyclic peptide CX7C, on the N-terminus of the minor coat protein pIII (New England Biolabs; NEB) were processed through multiple rounds of selection for binding to target proteins expressed in nerves, or to excised human nerves, nerve extracts, or muscle, as described further below.
For screening against the specified target proteins in Table 1, including LN211, LN411, LN421, and LN521, the phage library was processed by up to 4 binding and wash cycles. For selection, phage libraries were incubated for up to 24 hours at 4° C. in 96 well plates that had been coated with one of the target proteins. Plates were then washed with PBS and phage were eluted using 0.2M glycine pH 2.0. Phage supernatants where then neutralized with Tris pH 9.0 prior to plating on TGI bacteria and LB agar plates. Colonies were counted to determine titer followed by DNA preparation of pools of phage and NextGen sequencing. After rounds of selection, phage were pooled and amplified for iterative selection. Phage that were bound at each round were sequenced. NextGen sequencing of pools after 2, 3 and 4 rounds of selection was used to isolate candidate sequences that were analyzed further to identify those that specifically bound each unique target protein.
Python Script Analysis: For all NEB sequence datasets, a python script was used to translate, trim, and filter the peptide sequences. The script translated the nucleotide sequences, translating amber codons as glutamine in peptide sequences, and then trimmed the end sequences that come from the vector. Secondly, the script combined the unique counts of trimmed peptides with identical sequences. […] Another python script was used to group peptides from different assays according to protein target (Myelin Protein Zero, Myelin Proteolipid Protein, Myelin Basic Protein, and Nidogen-2) and also combine the unique sequence counts for each peptide. An R script was written to merge the peptide sequences from different data files and determine peptides specific for each protein target but absent from different protein binding datasets. Peptide sequences were ranked by unique sequence count.
Target sequence in this assay (P02686 134-304): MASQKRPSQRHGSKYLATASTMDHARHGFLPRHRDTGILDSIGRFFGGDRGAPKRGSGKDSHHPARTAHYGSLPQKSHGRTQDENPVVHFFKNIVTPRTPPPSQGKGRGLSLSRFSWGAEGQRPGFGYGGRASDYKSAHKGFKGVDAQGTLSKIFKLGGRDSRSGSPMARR

Substance | Count [1] | Count [2]
AAGQRSF (peptide) | 7 | 
AGSLLSL (peptide) | 6 | 
AILTRPP (peptide) | 7 | 
AIPPRKL (peptide) | 6 | 
AISWKGF (peptide) | 6 | 
AKFTMWV (peptide) | 6 | 
ALGTRPL (peptide) | 7 | 
ALRDTRV (peptide) | 6 | 
ALYNQMT (peptide) | 6 | 
ANLSRSV (peptide) | 9 | 
AQFLTIY (peptide) | 6 | 
AQLGAFR (peptide) | 6 | 
ARVPNPL (peptide) | 6 | 
ASNTSKG (peptide) | 7 | 
AVRQTTM (peptide) | 7 | 
DSQEKSV (peptide) | 6 | 
DSYLLSA (peptide) | 8 | 
DVRIWTL (peptide) | 6 | 
DVVKDVI (peptide) | 7 | 
ELKSLRF (peptide) | 6 | 
ESKSPRE (peptide) | 6 | 
ESPYPHS (peptide) | 7 | 
ETHYKIA (peptide) | 6 | 
FDLLARK (peptide) | 6 | 

Substance | Count [1] | Count [2]
FKLPWAS (peptide) | 7 | 
FLNQAPT (peptide) | 7 | 
FQLSYET (peptide) | 6 | 
FSAGVGK (peptide) | 7 | 
FSARTNT (peptide) | 9 | 
FVLPNKN (peptide) | 8 | 
GEPALVT (peptide) | 6 | 
GPITHAI (peptide) | 7 | 
GPRVTPH (peptide) | 6 | 
GQWWKML (peptide) | 6 | 
GRHTDVV (peptide) | 6 | 
GSPYGWG (peptide) | 6 | 
GVAEVGL (peptide) | 6 | 
HAHWARL (peptide) | 6 | 
HFLRPSD (peptide) | 7 | 
HFTFFPI (peptide) | 6 | 
HFYGPGP (peptide) | 9 | 
HLLKTHS (peptide) | 7 | 
HMAGVNQ (peptide) | 7 | 
HPDTLPQ (peptide) | 7 | 
HPTGTPT (peptide) | 7 | 
HPWLGNR (peptide) | 9 | 
HPWSHPN (peptide) | 6 | 
HQMRTML (peptide) | 6 | 

Substance | Count [1] | Count [2]
HQPLFPR (peptide) | 6 | 
HRTHLHQ (peptide) | 6 | 
HSGPLLP (peptide) | 6 | 
HSSATMS (peptide) | 6 | 
HTGLRSL (peptide) | 7 | 
HYSPNVM (peptide) | 9 | 
IGTRWHQ (peptide) | 6 | 
IILPSAQ (peptide) | 8 | 
INFPFAV (peptide) | 6 | 
IPIPYRT (peptide) | 6 | 
IPYSQMP (peptide) | 6 | 
KGQPLFR (peptide) | 7 | 
KIITTKS (peptide) | 6 | 
KMSLAPP (peptide) | 6 | 
KNSIAPR (peptide) | 8 | 
KVHHLAR (peptide) | 6 | 
KYRHGAE (peptide) | 7 | 
LELHQNV (peptide) | 6 | 
LFRRVTE (peptide) | 7 | 
LITHPQL (peptide) | 6 | 
LMLPQLE (peptide) | 6 | 
LPPQISR (peptide) | 8 | 
LTKSLNH (peptide) | 7 | 
LVPPVNH (peptide) | 6 | 

Substance | Count [1] | Count [2]
MDLSLKP (peptide) | 10 | 
MNSPLAQ (peptide) | 6 | 
MPLLELP (peptide) | 7 | 
MPSLKHQ (peptide) | 8 | 
MQRLGAD (peptide) | 6 | 
MTNHGNA (peptide) | 7 | 
NFAQHMQ (peptide) | 9 | 
NGPNSLQ (peptide) | 6 | 
NGVSSSL (peptide) | 6 | 
NLKLWTR (peptide) | 7 | 
NLLQGVM (peptide) | 7 | 
NLTYLRF (peptide) | 6 | 
NMYPRVT (peptide) | 7 | 
NPTDTNK (peptide) | 8 | 
NSSPHQI (peptide) | 7 | 
NTPKVLA (peptide) | 10 | 
NTSLSFK (peptide) | 8 | 
QGAYVRP (peptide) | 6 | 
QGTLFDT (peptide) | 7 | 
QKALPQT (peptide) | 6 | 
QNSYLSN (peptide) | 8 | 
QPIDSTS (peptide) | 7 | 
QQAHLQS (peptide) | 8 | 
QTSIMSG (peptide) | 6 | 

Substance | Count [1] | Count [2]
QYWDILG (peptide) | 6 | 
RGHPSQL (peptide) | 6 | 
RSRKHRP (peptide) | 6 | 
RTTDWWT (peptide) | 6 | 
RVIPSTT (peptide) | 6 | 
SAVLMPP (peptide) | 6 | 
SEGLTLL (peptide) | 6 | 
SEPGTVR (peptide) | 7 | 
SGNLKKA (peptide) | 7 | 
SGPFPLV (peptide) | 6 | 
SIQTSAM (peptide) | 6 | 
SIRMTEI (peptide) | 7 | 
SISKIRT (peptide) | 7 | 
SKLAGFP (peptide) | 6 | 
SKPHASH (peptide) | 6 | 
SLDHLRL (peptide) | 6 | 
SLKTTNP (peptide) | 6 | 
SLRSVGA (peptide) | 7 | 
TPVRLNT (R3 Myelin Basic Protein-binding peptide) |  | 6
TQMTMDS (R3 Myelin Basic Protein-binding peptide) |  | 10
TRIPILL (R3 Myelin Basic Protein-binding peptide) |  | 6
TSPPLAH (R3 Myelin Basic Protein-binding peptide) |  | 8
TSRLVST (R3 Myelin Basic Protein-binding peptide) |  | 8
TTTQGHP (R3 Myelin Basic Protein-binding peptide) |  | 6

Substance | Count [1] | Count [2]
VAHQRVS (R3 Myelin Basic Protein-binding peptide) |  | 8
VGTFWTR (R3 Myelin Basic Protein-binding peptide) |  | 6
VIRTAAM (R3 Myelin Basic Protein-binding peptide) |  | 6
VLSPYHN (R3 Myelin Basic Protein-binding peptide) |  | 6
VPTLRIP (R3 Myelin Basic Protein-binding peptide) |  | 8
VRGTPNH (R3 Myelin Basic Protein-binding peptide) |  | 6
VSFTLEP (R3 Myelin Basic Protein-binding peptide) |  | 7
VVDMSTY (R3 Myelin Basic Protein-binding peptide) |  | 7
WDLPQNR (R3 Myelin Basic Protein-binding peptide) |  | 6
WDLRHSK (R3 Myelin Basic Protein-binding peptide) |  | 6
WPDLRIL (R3 Myelin Basic Protein-binding peptide) |  | 7
WSLPLLS (R3 Myelin Basic Protein-binding peptide) |  | 7
WSPRWPS (R3 Myelin Basic Protein-binding peptide) |  | 7
WTYHPTT (R3 Myelin Basic Protein-binding peptide) |  | 6
WVPDRSL (R3 Myelin Basic Protein-binding peptide) |  | 6
YATATPS (R3 Myelin Basic Protein-binding peptide) |  | 8
YLPPPLP (R3 Myelin Basic Protein-binding peptide) |  | 7
YPTYLSY (R3 Myelin Basic Protein-binding peptide) |  | 6
YPYVPIY (R3 Myelin Basic Protein-binding peptide) |  | 6
YSSRLND (R3 Myelin Basic Protein-binding peptide) |  | 6
YTASPRW (R3 Myelin Basic Protein-binding peptide) |  | 6
YVNRVKQ (R3 Myelin Basic Protein-binding peptide) |  | 6

Source: US20240207421A1, “NERVE TARGETING PEPTIDES AND METHODS OF USE” (ALUME BIOSCIENCES, INC., priority 2020, published 2024)
